Measurements published in article PMC2191085.

Assays:
[1] = target: CD2 on human PBLs (human (endogenous in PBLs)) (UniProt P06729)
[2] = target: CD2 on Jurkat cells (human (endogenous in Jurkat)) (UniProt P06729); assay: inhibition of cell rosetting

Q: “LFA3TIP (first domain-LFA-3/IgG1 fusion protein) (Fc fusion)” was tested. Which inhibition of T cell proliferation in response to HBsAg, LFA3TIP at 2 ug/ml [1] did it give?
A: The inhibition of T cell proliferation in response to HBsAg, LFA3TIP at 2 ug/ml was 85%.

Q: With “multimeric phosphoinositol-linked LFA-3 (PI-LFA-3) (ligand)” as the substance, how does the fold lower concentration than LFA3TIP for inhibition of rosetting [2] read?
A: The fold lower concentration than LFA3TIP for inhibition of rosetting was 300 fold.
